Reference: IntAct's records for PubMed 26894577

Biological target: 2aba_human PPP2R2A (UniProt P63151)
Chain of UniProt P63151 (P63151 whole entry): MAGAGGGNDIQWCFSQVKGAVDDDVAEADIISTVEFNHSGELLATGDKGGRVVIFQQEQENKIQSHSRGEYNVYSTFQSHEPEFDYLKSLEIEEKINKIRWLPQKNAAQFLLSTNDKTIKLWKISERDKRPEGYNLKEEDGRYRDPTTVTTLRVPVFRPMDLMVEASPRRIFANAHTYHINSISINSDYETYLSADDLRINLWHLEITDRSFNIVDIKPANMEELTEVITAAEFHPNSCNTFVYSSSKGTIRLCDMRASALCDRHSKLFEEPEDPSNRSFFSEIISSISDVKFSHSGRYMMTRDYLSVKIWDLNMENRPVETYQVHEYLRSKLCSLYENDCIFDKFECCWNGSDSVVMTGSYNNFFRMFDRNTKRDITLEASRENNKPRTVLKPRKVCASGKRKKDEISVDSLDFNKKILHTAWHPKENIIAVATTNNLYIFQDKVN

Leucine-rich repeat serine/threonine-protein kinase 2 (Homo sapiens), Q5S007 R1441C
effect of a mutation on the interaction: with no effect
